We go through two molecules from paper PMC11623273.

The Kd is the free concentration of one partner at which half of the binding sites on the other are occupied at equilibrium, for simple one-to-one binding. The low end stands for tighter binding, the high end for weaker binding.

Assay [1] concerns the target Fab AP33 (Mus musculus). The following applies: other; Disulfide-linked heavy and light Fab chains. No candidate fits and the paper prints no AP33 sequence. PDB 4GAG (murine AP33 Fab with the E2 412-423 peptide) is cited from memory; entities 1 and 2 are assumed to be the antibody chains, and the peptide entity is excluded. The C-terminal double Strep tag on the heavy chain is omitted. The constant-region species of the S2-expressed Fab is not given; modification not given.

The target of assay [2] is Fab AP33 (Mus musculus). The following applies: domain or fragment; Disulfide-linked heavy and light Fab chains. No candidate fits and the paper prints no AP33 sequence. PDB 4GAG (murine AP33 Fab with the E2 412-423 peptide) is cited from memory; entities 1 and 2 are assumed to be the antibody chains, and the peptide entity is excluded. The C-terminal double Strep tag on the heavy chain is omitted. The constant-region species of the S2-expressed Fab is not given; modification not given.

Read-outs that look alike come from different tables or passages of the source.

B1: E2_S2_1 (design 2K6Z_01), epitope scaffold displaying HCV E2 epitope I (protein)
chain: MGSFTEGWVRFSPGPNAAAYLTLENPGDLPLRLVGARTPVAERVELWETQLINTNGSWHIGSRPVPFLEVPPKGRVELSPGGYYFHLLGLKRPLKAGEEVELDLLFAGGKVLKVVLPVEARGSENLYFQ
In the case of B1, the Kd with Fab AP33 (Mus musculus) [1] is 44.9 nM.

B2: soluble HCV E2 ectodomain (sE2) (protein)
chain: GTTTVGGAVARSTNVIAGVFSHGPQQNIQLINTNGSWHINRTALNCNDSLNTGFLAALFYTNRFNSSGCPGRLSACRNIEAFRIGWGTLQYEDNVTNPEDMRPYCWHYPPKPCGVVPARSVCGPVYCFTPSPVVVGTTDRRGVPTYTWGENETDVFLLNSTRPPQGSWFGCTWMNSTGFTKTCGAPPCRTRADFNASTDLLCPTDCFRKHPDATYIKCGSGPWLTPKCLVHYPYRLWHYPCTVNFTIFKIRMYVGGVEHRLTAACNFTRGDRCDLEDRDRSQLSPLLHSTTEWAILPCTYSDLPALSTGLLHLHQNIVDVQYMYGLSPAITKYVVR
For B2, the Kd with Fab AP33 (Mus musculus) [2] worked out at 58.4 nM. That is a double-digit nanomolar value.
